One protein from paper PMC3955222 can be followed below.

Substrate in the data set: O=C=O
In words: protein film electrochemistry, KM for CO2 reduction at -560 mV. The settings on record: [Ni-4Fe-4S] C-cluster active site C-cluster. The format is biochemical, Carboxydothermus hydrogenoformans.

Usually Km stands for the concentration of substrate that gives half-maximal velocity.

B1: CODH IICh (Carboxydothermus hydrogenoformans Z-2901) (protein)
chain: AKQNLKSTDRAVQQMLDKAKREGIQTVWDRYEAMKPQCGFGETGLCCRHCLQGPCRINPFGDEPKVGICGATAEVIVARGLDRSIAAGAAGHSGHAKHLAHTLKKAVQGKAASYMIKDRTKLHSIAKRLGIPTEGQKDEDIALEVAKAALADFHEKDTPVLWVTTVLPPSRVKVLSAHGLIPAGIDHEIAEIMHRTSMGCDADAQNLLLGGLRCSLADLAGCYMGTDLADILFGTPAPVVTESNLGVLKADAVNVAVHGHNPVLSDIIVSVSKEMENEARAAGATGINVVGICCTGNEVLMRHGIPACTHSVSQEMAMITGALDAMILDYQCIQPSVATIAECTGTTVITTMEMSKITGATHVNFAEEAAVENAKQILRLAIDTFKRRKGKPVEIPNIKTKVVAGFSTEAIINALSKLNANDPLKPLIDNVVNGNIRGVCLFAGCNNVKVPQDQNFTTIARKLLKQNVLVVATGCGAGALMRHGFMDPANVDELCGDGLKAVLTAIGEANGLGGPLPPVLHMGSCVDNSRAVALVAALANRLGVDLDRLPVVASAAEAMHEKAVAIGTWAVTIGLPTHIGVLPPITGSLPVTQILTSSVKDITGGYFIVELDPETAADKLLAAINERRAGLGLPW
Turning to B1, the Michaelis-Menten constant (Km) came to 8.0 ± 1.6 mM.
